According to PMC7350285:

What was measured:
BRG1 AT-BD R1502H = BRG1 AT-BD R1502H (human, UniProt P51532 1434-1569, R1502H); assay: BLI
BRG1 AT-BD P1456L = BRG1 AT-BD P1456L (human, UniProt P51532 1434-1569, P1456L); assay: BLI
BRG1 AT-BD P1456L, sequence (P51532 1434-1569 P1456L): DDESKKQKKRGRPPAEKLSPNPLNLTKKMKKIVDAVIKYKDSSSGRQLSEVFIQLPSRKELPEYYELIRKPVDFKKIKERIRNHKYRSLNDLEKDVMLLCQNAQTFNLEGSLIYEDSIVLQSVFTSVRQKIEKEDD

BRG1 AT-BD R1502H, sequence (P51532 1434-1569 R1502H): as the sequence (P51532 1434-1569 P1456L) above, with L23P, R69H counted along it

B1: biotinylated SELEX-DNA (dsDNA)
DNA 1: CCTCAATTAAATCTC
DNA 2: GAGATTTAATTGAGG
- Kd (BRG1 AT-BD R1502H): 2400 ± 200 nM
- Kd (BRG1 AT-BD P1456L): 1200 ± 100 nM
